Data reported in article PMC10847778.

How the values were obtained:
[1] = target: oleate hydratase (OhyA), recombinant full-length, His-tagged (Staphylococcus aureus); assay: cryo-EM single-particle images (no structure solved); grids of OhyA prepared in the absence of detergent
[2] = target: oleate hydratase (OhyA), recombinant full-length, His-tagged (Staphylococcus aureus); assay: mass photometry; OneMP mass photometer; final concentration 100 nM protein; dilute, equilibrium conditions
[3] = target: oleate hydratase (OhyA), recombinant full-length, His-tagged (Staphylococcus aureus); assay: SEC-MALS; Superose 6 Increase 10/300 GL; 20 mM Tris, 200 mM NaCl, pH 7.6; 25 °C; protein at 2 mg/ml, 100 μl injected
[4] = target: OhyA lacking helices α19 and α20 (OhyA(ΔHTH)), His-tagged (Staphylococcus aureus); assay: mass photometry; OneMP mass photometer; final concentration 100 nM protein; dilute, equilibrium conditions
[5] = target: OhyA lacking helices α19 and α20 (OhyA(ΔHTH)), His-tagged (Staphylococcus aureus); assay: SEC-MALS; Superose 6 Increase 10/300 GL; 20 mM Tris, 200 mM NaCl, pH 7.6; 25 °C; protein at 2 mg/ml, 100 μl injected

Substance | stoichiometry N [1] | percent dimer [2] | stoichiometry N [2] | percent dimer [3] | stoichiometry N [3] | percent dimer [4] | percent monomer [4] | percent dimer [5] | stoichiometry N [5]
oleate hydratase (OhyA), recombinant full-length, His-tagged (enzyme) | 4 | 86% | 2 | 84.6% | 2 | – | – | – | –
OhyA lacking helices α19 and α20 (OhyA(ΔHTH)), His-tagged (domain or fragment) | – | – | – | – | – | 20% | 75% | 89.8% | 2
